Where no end group is shown, it is not given here. The star is where a group is joined. Succinimide(1-Et,3-yl) = CCN1C(=O)CC(*)C1=O
Target: T1, human corticotrophin releasing hormone receptor type 2 (CRHR2) (human, UniProt Q13324 1-411)
T1 sequence (looked up): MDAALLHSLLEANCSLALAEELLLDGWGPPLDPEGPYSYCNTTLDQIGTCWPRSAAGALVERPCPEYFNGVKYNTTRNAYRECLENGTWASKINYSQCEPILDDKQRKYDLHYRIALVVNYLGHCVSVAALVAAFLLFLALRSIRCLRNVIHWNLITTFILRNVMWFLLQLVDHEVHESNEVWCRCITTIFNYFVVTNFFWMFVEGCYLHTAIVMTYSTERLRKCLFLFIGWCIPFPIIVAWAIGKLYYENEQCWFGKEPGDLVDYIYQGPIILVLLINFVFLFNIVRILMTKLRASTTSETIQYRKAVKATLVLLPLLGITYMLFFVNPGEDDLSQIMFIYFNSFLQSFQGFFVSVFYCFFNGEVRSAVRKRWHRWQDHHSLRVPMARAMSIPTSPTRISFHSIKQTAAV
Experiment: cell-based or functional assay

TKFTLSLDVPTCIMNLLFNIAKAKNLRAQAAANAHLMAQI-NH2 [Cys-variant stresscopin-like peptide SEQ ID NO: 13]
Log DR: -0.01 log10
pA50: 9.59 -log10(M)

TKCTLSLDVPTNIMNLLFNIAKAKNLRAQAAANAHLMAQI-NH2 [Cys-variant stresscopin-like peptide SEQ ID NO: 4]
Log DR: 1.03 log10
pA50: 8.65 -log10(M)

TKFTLCLDVPTNIMNLLFNIAKAKNLRAQAAANAHLMAQI-NH2 [Cys-variant stresscopin-like peptide SEQ ID NO: 7]
Log DR: 2.08 log10
pA50: 7.6 -log10(M)

TKFTLSLDVPTNIMNLCFNIAKAKNLRAQAAANAHLMAQI-NH2 [Cys-variant stresscopin-like peptide SEQ ID NO: 18]
Log DR: 1.11 log10
pA50: 8.41 -log10(M)

TKFTLSLDVPTNICNLLFNIAKAKNLRAQAAANAHLMAQI-NH2 [Cys-variant stresscopin-like peptide SEQ ID NO: 15]
Log DR: 0.9 log10
pA50: 8.68 -log10(M)

TKFCLSLDVPTNIMNLLFNIAKAKNLRAQAAANAHLMAQI-NH2 [Cys-variant stresscopin-like peptide SEQ ID NO: 5]
Log DR: 0.76 log10
pA50: 8.93 -log10(M)

B1: Cys-variant of stresscopin peptide with N-Ethylsuccinimide (NES) reactive group SEQ ID NO: 53 (peptide)
peptide: TKFTLSLDVPTNIMNLC(Succinimide(1-Et,3-yl))FNIAKAKNLRAQAAANAHLMAQI-NH2
modifications: N-terminus assumed
SMILES: CC[C@H](C)[C@H](NC(=O)[C@H](CCC(N)=O)NC(=O)[C@H](C)NC(=O)[C@H](CCSC)NC(=O)[C@H](CC(C)C)NC(=O)[C@H](Cc1c[nH]cn1)NC(=O)[C@H](C)NC(=O)[C@H](CC(N)=O)NC(=O)[C@H](C)NC(=O)[C@H](C)NC(=O)[C@H](C)NC(=O)[C@H](CCC(N)=O)NC(=O)[C@H](C)NC(=O)[C@H](CCCNC(=N)N)NC(=O)[C@H](CC(C)C)NC(=O)[C@H](CC(N)=O)NC(=O)[C@H](CCCCN)NC(=O)[C@H](C)NC(=O)[C@H](CCCCN)NC(=O)[C@H](C)NC(=O)[C@@H](NC(=O)[C@H](CC(N)=O)NC(=O)[C@H](Cc1ccccc1)NC(=O)[C@H](CSC1CC(=O)N(CC)C1=O)NC(=O)[C@H](CC(C)C)NC(=O)[C@H](CC(N)=O)NC(=O)[C@H](CCSC)NC(=O)[C@@H](NC(=O)[C@H](CC(N)=O)NC(=O)[C@@H](NC(=O)[C@@H]1CCCN1C(=O)[C@@H](NC(=O)[C@H](CC(=O)O)NC(=O)[C@H](CC(C)C)NC(=O)[C@H](CO)NC(=O)[C@H](CC(C)C)NC(=O)[C@@H](NC(=O)[C@H](Cc1ccccc1)NC(=O)[C@H](CCCCN)NC(=O)[C@@H](N)[C@@H](C)O)[C@@H](C)O)C(C)C)[C@@H](C)O)[C@@H](C)CC)[C@@H](C)CC)C(N)=O
Log DR: ~2.22 log10
pA50: ~7.25 -log10(M)

TCFTLSLDVPTNIMNLLFNIAKAKNLRAQAAANAHLMAQI-NH2 [Cys-variant stresscopin-like peptide SEQ ID NO: 3]
Log DR: 0.72 log10
pA50: 8.97 -log10(M)

TKFTLSLDVPTNCMNLLFNIAKAKNLRAQAAANAHLMAQI-NH2 [Cys-variant stresscopin-like peptide SEQ ID NO: 14]
Log DR: > 2 log10
pA50: ~7.34 -log10(M)

TKFTLSLDVPTNIMCLLFNIAKAKNLRAQAAANAHLMAQI-NH2 [Cys-variant stresscopin-like peptide SEQ ID NO: 16]
Log DR: 0.76 log10
pA50: 8.93 -log10(M)

TKFTLSLDVCTNIMNLLFNIAKAKNLRAQAAANAHLMAQI-NH2 [Cys-variant stresscopin-like peptide SEQ ID NO: 11]
Log DR: 0.82 log10
pA50: 8.76 -log10(M)

CKFTLSLDVPTNIMNLLFNIAKAKNLRAQAAANAHLMAQI-NH2 [Cys-variant stresscopin-like peptide SEQ ID NO: 2]
Log DR: 0.72 log10
pA50: 8.97 -log10(M)

TKFTCSLDVPTNIMNLLFNIAKAKNLRAQAAANAHLMAQI-NH2 [Cys-variant stresscopin-like peptide SEQ ID NO: 6]
Log DR: 0.61 log10
pA50: 9.07 -log10(M)

B2: Cys-variant of stresscopin peptide with N-Ethylsuccinimide (NES) reactive group SEQ ID NO: 54 (peptide)
peptide: TKFTLSLDVPTNIMNC(Succinimide(1-Et,3-yl))LFNIAKAKNLRAQAAANAHLMAQI-NH2
modifications: N-terminus assumed
SMILES: CC[C@H](C)[C@H](NC(=O)[C@H](CCC(N)=O)NC(=O)[C@H](C)NC(=O)[C@H](CCSC)NC(=O)[C@H](CC(C)C)NC(=O)[C@H](Cc1c[nH]cn1)NC(=O)[C@H](C)NC(=O)[C@H](CC(N)=O)NC(=O)[C@H](C)NC(=O)[C@H](C)NC(=O)[C@H](C)NC(=O)[C@H](CCC(N)=O)NC(=O)[C@H](C)NC(=O)[C@H](CCCNC(=N)N)NC(=O)[C@H](CC(C)C)NC(=O)[C@H](CC(N)=O)NC(=O)[C@H](CCCCN)NC(=O)[C@H](C)NC(=O)[C@H](CCCCN)NC(=O)[C@H](C)NC(=O)[C@@H](NC(=O)[C@H](CC(N)=O)NC(=O)[C@H](Cc1ccccc1)NC(=O)[C@H](CC(C)C)NC(=O)[C@H](CSC1CC(=O)N(CC)C1=O)NC(=O)[C@H](CC(N)=O)NC(=O)[C@H](CCSC)NC(=O)[C@@H](NC(=O)[C@H](CC(N)=O)NC(=O)[C@@H](NC(=O)[C@@H]1CCCN1C(=O)[C@@H](NC(=O)[C@H](CC(=O)O)NC(=O)[C@H](CC(C)C)NC(=O)[C@H](CO)NC(=O)[C@H](CC(C)C)NC(=O)[C@@H](NC(=O)[C@H](Cc1ccccc1)NC(=O)[C@H](CCCCN)NC(=O)[C@@H](N)[C@@H](C)O)[C@@H](C)O)C(C)C)[C@@H](C)O)[C@@H](C)CC)[C@@H](C)CC)C(N)=O
Log DR: -0.08 log10
pA50: 9.55 -log10(M)

TKFTLSLDVPCNIMNLLFNIAKAKNLRAQAAANAHLMAQI-NH2 [Cys-variant stresscopin-like peptide SEQ ID NO: 12]
Log DR: 1.72 log10
pA50: 7.86 -log10(M)

TKFTLSLDVPTNIMNCLFNIAKAKNLRAQAAANAHLMAQI-NH2 [Cys-variant stresscopin-like peptide SEQ ID NO: 17]
Log DR: 0.02 log10
pA50: 9.5 -log10(M)

TKFTLSLCVPTNIMNLLFNIAKAKNLRAQAAANAHLMAQI-NH2 [Cys-variant stresscopin-like peptide SEQ ID NO: 9]
Log DR: 1.89 log10
pA50: 7.8 -log10(M)

CKFTLSLDVPTNIMNLLFNIAKAKNLRAQAAANAHLMAQI (NES-PEG (about 20 kDa) on Cys 1; C-terminal amide (-NH2)) [Pegylated Cys-variant stresscopin-like peptide with NES linker and PEG about 20 kDa SEQ ID NO: 55]
Log DR: ~1.61 log10
pA50: ~7.93 -log10(M)

TKFTLCLDVPTNIMNLLFNIAKAKNLRAQAAANAHLMAQI (NES-PEG (about 20 kDa) on Cys 6; C-terminal amide (-NH2)) [Pegylated Cys-variant stresscopin-like peptide with NES linker and PEG about 20 kDa SEQ ID NO: 60]
Log DR: > 3.22 log10
pA50: ~6.32 -log10(M)

TKFTLSCDVPTNIMNLLFNIAKAKNLRAQAAANAHLMAQI (NES-PEG (about 20 kDa) on Cys 7; C-terminal amide (-NH2)) [Pegylated Cys-variant stresscopin-like peptide with NES linker and PEG about 20 kDa SEQ ID NO: 61]
Log DR: > 3.32 log10
pA50: ~6.22 -log10(M)

TCFTLSLDVPTNIMNLLFNIAKAKNLRAQAAANAHLMAQI (NES-PEG (about 20 kDa) on Cys 2; C-terminal amide (-NH2)) [Pegylated Cys-variant stresscopin-like peptide with NES linker and PEG about 20 kDa SEQ ID NO: 56]
Log DR: ~2.34 log10
pA50: ~7.2 -log10(M)

TKFTLSLDVPTNCMNLLFNIAKAKNLRAQAAANAHLMAQI (NES-PEG (about 20 kDa) on Cys 13; C-terminal amide (-NH2)) [Pegylated Cys-variant stresscopin-like peptide with NES linker and PEG about 20 kDa SEQ ID NO: 67]
Log DR: > 3 log10
pA50: ~6.35 -log10(M)

TKFCLSLDVPTNIMNLLFNIAKAKNLRAQAAANAHLMAQI (NES-PEG (about 20 kDa) on Cys 4; C-terminal amide (-NH2)) [Pegylated Cys-variant stresscopin-like peptide with NES linker and PEG about 20 kDa SEQ ID NO: 58]
Log DR: ~2.4 log10
pA50: ~7.14 -log10(M)

TKFTLSLDVPTNIMCLLFNIAKAKNLRAQAAANAHLMAQI (NES-PEG (about 20 kDa) on Cys 15; C-terminal amide (-NH2)) [Pegylated Cys-variant stresscopin-like peptide with NES linker and PEG about 20 kDa SEQ ID NO: 69]
Log DR: 2.09 log10
pA50: 7.45 -log10(M)

TKFTLSLDVPCNIMNLLFNIAKAKNLRAQAAANAHLMAQI (NES-PEG (about 20 kDa) on Cys 11; C-terminal amide (-NH2)) [Pegylated Cys-variant stresscopin-like peptide with NES linker and PEG about 20 kDa SEQ ID NO: 65]
Log DR: ~2.75 log10
pA50: ~6.82 -log10(M)

TKCTLSLDVPTNIMNLLFNIAKAKNLRAQAAANAHLMAQI (NES-PEG (about 20 kDa) on Cys 3; C-terminal amide (-NH2)) [Pegylated Cys-variant stresscopin-like peptide with NES linker and PEG about 20 kDa SEQ ID NO: 57]
Log DR: ~1.9 log10
pA50: ~7.64 -log10(M)

TKFTLSLDVPTCIMNLLFNIAKAKNLRAQAAANAHLMAQI (NES-PEG (about 20 kDa) on Cys 12; C-terminal amide (-NH2)) [Pegylated Cys-variant stresscopin-like peptide with NES linker and PEG about 20 kDa SEQ ID NO: 66]
Log DR: 1.26 log10
pA50: 8.31 -log10(M)

TKFTLSLDCPTNIMNLLFNIAKAKNLRAQAAANAHLMAQI (NES-PEG (about 20 kDa) on Cys 9; C-terminal amide (-NH2)) [Pegylated Cys-variant stresscopin-like peptide with NES linker and PEG about 20 kDa SEQ ID NO: 63]
Log DR: ~2.12 log10
pA50: ~7.45 -log10(M)

TKFTLSLDVPTNICNLLFNIAKAKNLRAQAAANAHLMAQI (NES-PEG (about 20 kDa) on Cys 14; C-terminal amide (-NH2)) [Pegylated Cys-variant stresscopin-like peptide with NES linker and PEG about 20 kDa SEQ ID NO: 68]
Log DR: ~2.61 log10
pA50: ~6.96 -log10(M)

TKFTLSLDVCTNIMNLLFNIAKAKNLRAQAAANAHLMAQI (NES-PEG (about 20 kDa) on Cys 10; C-terminal amide (-NH2)) [Pegylated Cys-variant stresscopin-like peptide with NES linker and PEG about 20 kDa SEQ ID NO: 64]
Log DR: ~2.59 log10
pA50: ~6.98 -log10(M)

TKFTCSLDVPTNIMNLLFNIAKAKNLRAQAAANAHLMAQI (NES-PEG (about 20 kDa) on Cys 5; C-terminal amide (-NH2)) [Pegylated Cys-variant stresscopin-like peptide with NES linker and PEG about 20 kDa SEQ ID NO: 59]
Log DR: ~2.32 log10
pA50: ~7.22 -log10(M)

TKFTLSLCVPTNIMNLLFNIAKAKNLRAQAAANAHLMAQI (NES-PEG (about 20 kDa) on Cys 8; C-terminal amide (-NH2)) [Pegylated Cys-variant stresscopin-like peptide with NES linker and PEG about 20 kDa SEQ ID NO: 62]
Log DR: > 3.48 log10
pA50: ~6.06 -log10(M)

TKFTLSLDVPTNIMNCLFNIAKAKNLRAQAAANAHLMAQI (NES-PEG (about 20 kDa) on Cys 16; C-terminal amide (-NH2)) [Pegylated Cys-variant stresscopin-like peptide with NES linker and PEG about 20 kDa SEQ ID NO: 70]
Log DR: ~2.07 log10
pA50: ~7.34 -log10(M)

TKFTLSCDVPTNIMNLLFNIAKAKNLRAQAAANAHLMAQI-NH2 [Cys-variant stresscopin-like peptide SEQ ID NO: 8]
Log DR: 2.86 log10
pA50: ~6.82 -log10(M)

TKFTLSLDCPTNIMNLLFNIAKAKNLRAQAAANAHLMAQI-NH2 [Cys-variant stresscopin-like peptide SEQ ID NO: 10]
Log DR: 1.3 log10
pA50: 8.28 -log10(M)

Source: patent US20110105397A1, “METHOD FOR TREATING HEART FAILURE WITH STRESSCOPIN-LIKE PEPTIDES” (priority 2009, published 2011)
